In paper PMC9418313, “Multivalent interactions between molecular components involved in fast endophilin mediated endocytosis drive protein phase separation” (Nature Communications, 2022):

B1: endophilin ΔH0 mutant (domain or fragment)
chain: GGAEGTKLDDDFKEMERKVDVTSRAVMEIMTKTIEYLQPNPASRAKLSMINTMSKIRGQEKGPGYPQAEALLAEAMLKFGRELGDDCNFGPALGEVGEAMRELSEVKDSLDMEVKQNFIDPLQNLHDKDLREIQHHLKKLEGRRLDFDYKKKRQGKIPDEELRQALEKFDESKEIAESSMFNLLEMDIEQVSQLSALVQAQLEYHKQAVQILQQVTVRLEERIRQASSQPRREYQPKPRMSLEFATGDGTQPNGGLSHTGTPKPAGVQMDQPCCRALYDFEPENEGELGFKEGDIITLTNQIDENWYEGMLHGQSGFFPINYVEILVALPH
modifications: Alexa 594 C5-maleimide on the labelled fraction
B2: full-length human amphiphysin 1 (natural protein, UniProt P49418 1-695, looked up)
chain: MADIKTGIFAKNVQKRLNRAQEKVLQKLGKADETKDEQFEEYVQNFKRQEAEGTRLQRELRGYLAAIKGMQEASMKLTESLHEVYEPDWYGREDVKMVGEKCDVLWEDFHQKLVDGSLLTLDTYLGQFPDIKNRIAKRSRKLVDYDSARHHLEALQSSKRKDESRISKAEEEFQKAQKVFEEFNVDLQEELPSLWSRRVGFYVNTFKNVSSLEAKFHKEIAVLCHKLYEVMTKLGDQHADKAFTIQGAPSDSGPLRIAKTPSPPEEPSPLPSPTASPNHTLAPASPAPARPRSPSQTRKGPPVPPLPKVTPTKELQQENIISFFEDNFVPEISVTTPSQNEVPEVKKEETLLDLDFDPFKPEVTPAGSAGVTHSPMSQTLPWDLWTTSTDLVQPASGGSFNGFTQPQDTSLFTMQTDQSMICNLAESEQAPPTEPKAEEPLAAVTPAVGLDLGMDTRAEEPVEEAVIIPGADADAAVGTLVSAAEGAPGEEAEAEKATVPAGEGVSLEEAKIGTETTEGAESAQPEAEELEATVPQEKVIPSVVIEPASNHEEEGENEITIGAEPKETTEDAAPPGPTSETPELATEQKPIQDPQPTPSAPAMGAADQLASAREASQELPPGFLYKVETLHDFEAANSDELTLQRGDVVLVVPSDSEADQDAGWLVGVKESDWLQYRDLATYKGLFPENFTRRLD
modifications: Alexa 488 C5-maleimide
notes: amphiphysin 1, human, full length; Plasmid from Pietro De Camilli's lab; also called Amph1; Amph1-Alexa 488
B3: FBP17 (natural protein, UniProt Q96RU3 1-617, looked up)
chain: MSWGTELWDQFDNLEKHTQWGIDILEKYIKFVKERTEIELSYAKQLRNLSKKYQPKKNSKEEEEYKYTSCKAFISNLNEMNDYAGQHEVISENMASQIIVDLARYVQELKQERKSNFHDGRKAQQHIETCWKQLESSKRRFERDCKEADRAQQYFEKMDADINVTKADVEKARQQAQIRHQMAEDSKADYSSILQKFNHEQHEYYHTHIPNIFQKIQEMEERRIVRMGESMKTYAEVDRQVIPIIGKCLDGIVKAAESIDQKNDSQLVIEAYKSGFEPPGDIEFEDYTQPMKRTVSDNSLSNSRGEGKPDLKFGGKSKGKLWPFIKKNKLMSLLTSPHQPPPPPPASASPSAVPNGPQSPKQQKEPLSHRFNEFMTSKPKIHCFRSLKRGLSLKLGATPEDFSNLPPEQRRKKLQQKVDELNKEIQKEMDQRDAITKMKDVYLKNPQMGDPASLDHKLAEVSQNIEKLRVETQKFEAWLAEVEGRLPARSEQARRQSGLYDSQNPPTVNNCAQDRESPDGSYTEEQSQESEMKVLATDFDDEFDDEEPLPAIGTCKALYTFEGQNEGTISVVEGETLYVIEEDKGDGWTRIRRNEDEEGYVPTSYVEVCLDKNAKDS
modifications: Alexa 488 C5-maleimide
notes: Obtained from Harvey McMahon's lab; also called F-BAR family protein FBP17; FBP17 (Alexa 488); source: E. coli BL21-CodonPlus(DE3)-RIL, purified (GSTrap, size exclusion)
B4: full-length rat endophilin A1 (single-cysteine form) (natural protein, UniProt O35179 1-352, looked up)
chain: MSVAGLKKQFHKATQKVSEKVGGAEGTKLDDDFKEMERKVDVTSRAVMEIMTKTIEYLQPNPASRAKLSMINTMSKIRGQEKGPGYPQAEALLAEAMLKFGRELGDDSNFGPALGEVGEAMRELSEVKDSLDMEVKQNFIDPLQNLHDKDLREIQHHLKKLEGRRLDFDYKKKRQGKIPDEELRQALEKFDESKEIAESSMFNLLEMDIEQVSQLSALVQAQLEYHKQAVQILQQVTVRLCERIRQASSQPRREYQPKPRMSLEFATGDGTQPNGGLSHTGTPKPAGVQMDQPSSRALYDFEPENEGELGFKEGDIITLTNQIDENWYEGMLHGQSGFFPINYVEILVALPH
modifications: Alexa 594 or Alexa 488 C5-maleimide on the small labelled fraction (about 4-10 mol%) mixed with unlabelled protein
notes: endophilin A1, rat, full length, mutated to a single-cysteine form for labeling; also called A1 isoform of endophilin, from rat; full-length endophilin
B5: lamellipodin C-terminal domain fragment LPD^850–1250 with C-terminal His6 tag (domain or fragment, UniProt Q70E73 850-1250, looked up)
chain: PPPSPLSPVPSVVKQIASQFPPPPTPPAMESQPLKPVPANVAPQSPPAVKAKPKWQPSSIPVPSPDFPPPPPESSLVFPPPPPSPVPAPPPPPPPTASPTPDKSGSPGKKTSKTSSPGGKKPPPTPQRNSSIKSSSGAEHPEPKRPSVDSLVSKFTPPAESGSPSKETLPPPAAPPKPGKLNLSGVNLPGVLQQGCVSAKAPVLSGRGKDSVVEFPSPPSDSDFPPPPPETELPLPPIEIPAVFSGNTSPKVAVVNPQPQQWSKMSVKKAPPPTRPKRNDSTRLTQAEISEQPTMATVVPQVPTSPKSSLSVQPGFLADLNRTLQRKSITRHGSLSSRMSRAEPTATMDDMALPPPPPELLSDQQKAGYGGSHISGYATLRRGPPPAPPKRDQNTKLSRDW
modifications: Alexa 647 succinimidyl ester on the labelled fraction
notes: Synthesized and cloned into pGEX6p1 by Biomatik; also called LPD C-terminal domain; source: E. coli BL21-CodonPlus(DE3)-RIL, purified (Ni-NTA agarose, cation exchange); not shown: His6, C-terminal, kept
B6: third intracellular loop (TIL) of the human β1-adrenergic receptor (aa 246–325) (domain or fragment, UniProt P08588 246-325, looked up)
chain: RVFREAQKQVKKIDSCERRFLGGPARPPSPSPSPVPAPAPPPGPPRPAAAAATAPLANGRAGKRRPSRLVALREQKALKT
modifications: Alexa 488 (5-SDP ester) at the N-terminal on the labelled fraction
notes: β1-adrenergic receptor, human, third intracellular loop, 80 amino acids, aa 246–325; Cloned in pGEX6p1; GST cleaved by PreScission protease; also called TIL-Alexa 488; source: E. coli BL21-CodonPlus(DE3)-RIL, purified (GST Trap, cation exchange)

Tests used:
[1] = target: endophilin N-BAR-only mutant (rat); experiment: fluorescence intensity ratio of droplets vs. bulk solution (confocal microscopy); 1 µM Alexa 594-labeled variant with 25 µM of the same unlabeled variant, 10% PEG
[2] = target: full-length rat endophilin A1 (single-cysteine form) (rat) (UniProt O35179)
[3] = target: full-length rat endophilin A1 (single-cysteine form) (rat) (UniProt O35179); experiment: client partitioning into condensate droplets (confocal microscopy, apparent partition coefficient); endophilin (25 µM) droplets with 10% PEG; Alexa-labeled client at 250 nM to 1 µM mixed in before PEG; 20 mM HEPES, 150 mM NaCl, 1 mM TCEP, pH 7.4, room temperature; apparent
[4] = target: the molecule itself; experiment: fluorescence intensity ratio of droplets vs. bulk solution (confocal microscopy); 1 µM Alexa 594-labeled variant with 25 µM of the same unlabeled variant, 10% PEG
[5] = target: B4; experiment: client partitioning into condensate droplets (confocal microscopy, apparent partition coefficient); endophilin (25 µM) droplets with 10% PEG; Alexa-labeled client at 250 nM to 1 µM mixed in before PEG; 20 mM HEPES, 150 mM NaCl, 1 mM TCEP, pH 7.4, room temperature; apparent; conditions: both partners purified
[6] = target: B4; experiment: cell-based or functional assay

Molecule	apparent partition coefficient (Kapp) [5]	threshold endophilin concentration for LLPS (10% PEG) in the presence of 10 µM client (10 µM without client) [6] [µM]	also measured
endophilin N-BAR-only mutant (domain or fragment)			fluorescence intensity ratio inside vs. outside droplets [1]: 1800
PRM7-His: heptameric repeat of a lamellipodin proline-rich motif (aa 970–981) joined by (Gly-Gly-Ser)4 linkers (from UniProt Q70E73 970-981; Q70E73 970-981; Q70E73 970-981; Q70E73 970-981; Q70E73 970-981; Q70E73 970-981; Q70E73 970-981) (designed binder)			threshold endophilin concentration for LLPS (10% PEG) in the presence of 10 µM client (10 µM without client) [2]: < 5 µM; apparent partition coefficient (Kapp) [3]: 26
BIN1 isoform 9 (natural protein)			apparent partition coefficient (Kapp) [3]: 267
B1			fluorescence intensity ratio inside vs. outside droplets [4]: 380
B2	352	30	
B3	1130	15	
B4			fluorescence intensity ratio inside vs. outside droplets [4]: 480
B5	515	≤ 5	
B6	138	≤ 5	
